The series deals with the molecule itself. The series is described as follows: native gel or EMSA; pore-limited native PAGE of purified recombinant A2M; dimers that failed to tetramerize were removed during purification (Fig. S2). On the technique in general: Mobility shift assays separate free from complexed probe on a gel.

B1: tabula rasa A2M (bait region replaced by 13 Gly-Gly-Ser repeats) (natural protein, human)
chain: SVSGKPQYMVLVPSLLHTETTEKGCVLLSYLNETVTVSASLESVRGNRSLFTDLEAENDVLHCVAFAVPKSSSNEEVMFLTVQVKGPTQEFKKRTTVMVKNEDSLVFVQTDKSIYKPGQTVKFRVVSMDENFHPLNELIPLVYIQDPKGNRIAQWQSFQLEGGLKQFSFPLSSEPFQGSYKVVVQKKSGGRTEHPFTVEEFVLPKFEVQVTVPKIITILEEEMNVSVCGLYTYGKPVPGHVTVSICRKYSDASDCHGEDSQAFCEKFSGQLNSHGCFYQQVKTKVFQLKRKEYEMKLHTEAQIQEEGTVVELTGRQSSEITRTITKLSFVKVDSHFRQGIPFFGQVRLVDGKGVPIPNKVIFIRGNEANYYSNATTDEHGLVQFSINTTNVMGTSLTVRVNYKDRSPCYGYQWVSEEHEEAHHTAYLVFSPSKSFVHLEPMSHELPCGHTQTVQAHYILNGGTLLGLKKLSFYYLIMAKGGIVRTGTHGLLVKQEDMKGHFSISIPVKSDIAPVARLLIYAVLPTGDVIGDSAKYDVENCLANKVDLSFSPSQSLPASHAHLRVTAAPQSVCALRAVDQSVLLMKPDAELSASSVYNLLPEKDLTGFPGPLNDQDNEDCINRHNVYINGITYTPVSSTNEKDMYSFLEDMGLKAFTNSKIRKPKMCGGSGGSGGSGGSGGSGGSGGSGGSGGSGGSGGSGGSGGSETVRKYFPETWIWDLVVVNSAGVAEVGVTVPDTITEWKAGAFCLSEDAGLGISSTASLRAFQPFFVELTMPYSVIRGEAFTLKATVLNYLPKCIRVSVQLEASPAFLAVPVEKEQAPHCICANGRQTVSWAVTPKSLGNVNFTVSAEALESQELCGTEVPSVPEHGRKDTVIKPLLVEPEGLEKETTFNSLLCPSGGEVSEELSLKLPPNVVEESARASVSVLGDILGSAMQNTQNLLQMPYGCGEQNMVLFAPNIYVLDYLNETQQLTPEIKSKAIGYLNTGYQRQLNYKHYDGSYSTFGERYGRNQGNTWLTAFVLKTFAQARAYIFIDEAHITQALIWLSQRQKDNGCFRSSGSLLNNAIKGGVEDEVTLSAYITIALLEIPLTVTHPVVRNALFCLESAWKTAQEGDHGSHVYTKALLAYAFALAGNQDKRKEVLKSLNEEAVKKDNSVHWERPQKPKAPVGHFYEPQAPSAEVEMTSYVLLAYLTAQPAPTSEDLTSATNIVKWITKQQNAQGGFSSTQDTVVALHALSKYGAATFTRTGKAAQVTIQSSGTFSSKFQVDNNNRLLLQQVSLPELPGEYSMKVTGEGCVYLQTSLKYNILPEKEEFPFALGVQTLPQTCDEPKAHTSFQISLSVSYTGSRSASNMAIVDVKMVSGFIPLKPTVKMLERSNHVSRTEVSSNHVLIYLDKVSNQTLSLFFTVLQDVPVRDLKPAIVKVYDYYETDEFAIAEYNAPCSKDLGNA
notes: human alpha2-macroglobulin from its N-terminus to residue 689, the residue before the bait region (residues 690-728); tabula rasa bait region: 13 Gly-Gly-Ser repeats in place of the 39 residues 690-728, told in words; human alpha2-macroglobulin from residue 729, the residue after the bait region, to the C-terminus; Dimers removed during purification; also called A2M TR; A2M tabula rasa
Regarding B1, the stoichiometry N (usually a count of units in the complex or per binding partner) stood at 4.

The record behind these values is PMC8267569, “Development of selective protease inhibitors via engineering of the bait region of human α2-macroglobulin” (The Journal of Biological Chemistry, 2021).
